Test [1] has as its target T1, His-tagged talin-head (talin 1–405 aa), N-tagged version (UniProt P26039 1-405).
T1 construct: talin 1, residues 1–405 (head domain); also called TH; N-tagged talin; not shown: His tag, N-terminal, kept
Briefly: BLI; Octet RED384; biotinylated MBP-LIMs immobilised on streptavidin sensor (biocytin quench); His-tagged talin head in solution at 20, 80, 320, 1250 and 5000 nM; PBS with 1% BSA, 0.1% Tween-20, 0.05% sodium azide; 27 °C, 1000 rpm; biotinylated free MBP sensor subtracted; apparent affinity. Conditions: both partners purified. For orientation: BLI is a label-free optical method that tracks binding on a fibre tip over time.

Test [2] concerns the target T2, His-tagged talin-head (talin 1–405 aa), C-tagged version (UniProt P26039 1-405).
T2 construct: talin 1, residues 1–405 (head domain); also called TH; C-tagged talin; not shown: His tag, C-terminal, kept
Described as above. The following applies: both partners purified.

T2 sequence (P26039 1-405): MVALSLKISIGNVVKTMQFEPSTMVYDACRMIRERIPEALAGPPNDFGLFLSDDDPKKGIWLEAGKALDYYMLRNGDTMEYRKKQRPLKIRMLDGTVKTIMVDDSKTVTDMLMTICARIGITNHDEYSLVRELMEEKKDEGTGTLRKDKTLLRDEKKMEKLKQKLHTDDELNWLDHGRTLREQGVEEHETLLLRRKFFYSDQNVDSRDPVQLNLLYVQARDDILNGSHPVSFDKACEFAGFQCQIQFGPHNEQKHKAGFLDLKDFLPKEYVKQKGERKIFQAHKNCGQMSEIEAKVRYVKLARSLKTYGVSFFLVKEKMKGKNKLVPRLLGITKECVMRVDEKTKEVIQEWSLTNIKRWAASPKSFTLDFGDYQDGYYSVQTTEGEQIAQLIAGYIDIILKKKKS
T1 sequence (P26039 1-405): as above

B1: biotinylated MBP-LIMs (domain or fragment, human, UniProt P49023-2 317-557, looked up)
chain: ATVAKGVCGACKKPIAGQVVTAMGKTWHPEHFVCTHCQEEIGSRNFFERDGQPYCEKDYHNLFSPRCYYCNGPILDKVVTALDRTWHPEHFFCAQCGAFFGPEGFHEKDGKAYCRKDYFDMFAPKCGGCARAILENYISALNTLWHPECFVCRECFTPFVNGSFFEHDGQPYCEVHYHERRGSLCSGCQKPITGRCITAMAKKFHPEHFVCAFCLKQLNKGTFKEQNDKPYCQNCFLKLFC
modifications: biotin (EZ-Link NHS-PEG4-Biotin)
notes: paxillin LIM1-LIM4, human paxillin α; limits as told for the LIMs construct (from residue 317), the MBP constructs being 'analogously produced'; numbered according to P49023-2; also called MBP-tagged and biotinylated LIM domains (LIMs)
On to B1, for which the Kd turned out to be 720 nM in test [1] and 770 nM in test [2].

Source of the values: article PMC8007706, “Structural and functional analysis of LIM domain-dependent recruitment of paxillin to αvβ3 integrin-positive focal adhesions” (Communications Biology, 2021).
